In patent US7339039B2, “Nucleic acids encoding receptor recognition factors, and methods of use thereof” (The Rockfeller University, priority 1992, dated 2008):

System: Stat84 and Stat91L homodimers
Assay: Dissociation-reassociation analysis (gel mobility shift with GAS probe)
Type: biochemical, human
Conditions: GST fusion protein 0.5 to 5 μM
Procedure: Gel Mobility Shift Assays. Gel mobility shift assays were carried out as described (34). An oligonucleotide corresponding to the GAS element from the human FcγRI receptor gene (Pearse et al. 1993) was synthesized and used for gel mobility shift assays. The oligonucleotide has the following sequence: 5′[…]3′ (SEQ. ID NO:17).
Dissociation-reassociation Analysis. Extracts were incubated with various concentrations of peptides or fusion proteins, and ^32P-labeled GAS oligonucleotide probe in gel shift buffer was then added to promote the formation of protein-DNA complex followed by mobility shift analysis.
Dimerization of Stat91 Involves Phosphoryrosyl Peptide and SH2 Interactions. Based on the results described above, we devised a dissociation-reassociation assay in the absence of guanidium hydrochloride to explore the possible nature of interactions involved in dimer formation (FIG. 20). When the short and the long forms of a homodimer are mixed with a dissociating agent (e.g., a peptide containing the putative dimerization domain), the subunits of the dimer should dissociate (in a concentration dependent fashion) due to the interaction of the agent with the dimerization domain(s) of the protein. […] At high concentration of the dissociating agent, subunits of the dimer may not be able to re-form and no DNA-protein complexes would be detected (FIG. 20).

Stat84 and Stat91L homodimers, sequence (P42224 2-712 limits assumed): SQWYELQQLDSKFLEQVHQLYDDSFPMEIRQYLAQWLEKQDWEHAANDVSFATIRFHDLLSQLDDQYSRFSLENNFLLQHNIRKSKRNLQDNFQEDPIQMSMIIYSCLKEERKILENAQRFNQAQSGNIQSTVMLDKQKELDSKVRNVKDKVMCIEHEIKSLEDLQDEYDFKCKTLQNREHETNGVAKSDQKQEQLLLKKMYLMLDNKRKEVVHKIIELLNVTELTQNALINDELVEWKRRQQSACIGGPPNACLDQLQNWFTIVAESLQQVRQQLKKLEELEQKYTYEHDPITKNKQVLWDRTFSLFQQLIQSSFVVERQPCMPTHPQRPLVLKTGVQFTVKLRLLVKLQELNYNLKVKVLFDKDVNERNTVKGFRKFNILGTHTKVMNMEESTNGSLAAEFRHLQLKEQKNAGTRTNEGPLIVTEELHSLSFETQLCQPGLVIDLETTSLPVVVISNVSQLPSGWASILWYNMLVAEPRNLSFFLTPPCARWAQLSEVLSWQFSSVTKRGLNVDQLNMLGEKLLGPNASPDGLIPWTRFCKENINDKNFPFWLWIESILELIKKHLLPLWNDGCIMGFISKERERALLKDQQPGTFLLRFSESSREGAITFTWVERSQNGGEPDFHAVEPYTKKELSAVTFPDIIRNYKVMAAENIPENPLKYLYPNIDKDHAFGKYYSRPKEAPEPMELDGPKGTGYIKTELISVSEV

B1: GST-91SH2: GST fusion protein encoding amino acids 573 to 672 of Stat91 (protein)
chain: WNDGCIMGFISKERERALLKDQQPGTFLLRFSESSREGAITFTWVERSQNGGEPDFHAVEPYTKKELSAVTFPDIIRNYKVMAAENIPENPLKYLYPNID
modifications: left off: a dimerising Fc or GST
notes: GST fusion protein encoding amino acids 573 to 672 of Stat91
formation of heterodimer / exchange of subunits between Stat84 and Stat91L homodimers: promoted the formation of a heterodimer
